# Assay results as given in patent publication EP4659810A1.
# Columns and labels:
# [1] = biological target: VP1 on BKV genotype II pseudovirions (GBR-12; AB263920) (BK virus genotype II (GBR-12; AB263920)) (UniProt P14996); assay: cell-based or functional assay
# [2] = biological target: VP1 on BKV genotype Ia pseudovirions (BK-D; JF894228) (BK virus genotype Ia (BK-D; JF894228)) (UniProt P03088); assay: cell-based or functional assay
# [3] = biological target: VP1 on entire replicative virions of BK virus genotype Ia (Dunlop strain; ATCC VR-837) (BK virus genotype Ia (Dunlop strain)) (UniProt P03088); assay: cell-based or functional assay
# [4] = biological target: VP1 on entire replicative virions of BKV genotype II (patient's isolate) (BK virus genotype II); assay: cell-based or functional assay
# [5] = biological target: VP1 pentamer of BKV genotype I (truncated VP1, residues 31 to 301, C104S) (BK virus genotype I (Dunlop sequence)) (UniProt P03088); assay: BLI (OctetRED96e), biotinylated VP1 pentamer on streptavidin sensor, mAb 0 to 40 nM in solution
# MTX005 from Memo Therapeutics AG (referred as 319C07 in WO2021/250097) (antibody), sequence (VH): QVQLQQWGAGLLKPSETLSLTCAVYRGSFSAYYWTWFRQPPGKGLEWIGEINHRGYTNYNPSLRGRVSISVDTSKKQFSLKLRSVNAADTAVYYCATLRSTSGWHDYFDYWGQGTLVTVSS
# MTX005 from Memo Therapeutics AG (referred as 319C07 in WO2021/250097) (antibody), sequence (VL): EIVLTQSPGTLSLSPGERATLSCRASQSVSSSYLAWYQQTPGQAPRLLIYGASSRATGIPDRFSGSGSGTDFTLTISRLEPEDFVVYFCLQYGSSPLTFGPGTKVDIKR
substance,measurement,setting,value
MTX005 from Memo Therapeutics AG (referred as 319C07 in WO2021/250097) (antibody),"IC50, neutralization of BKV pseudovirions (luciferase, 293TT cells)",[1],0.08 ng/mL
same,"IC50, neutralization of BKV pseudovirions (luciferase, 293TT cells)",[2],0.03 ng/mL
same,"IC50, neutralization of fully replicative BKV virions (MRC5 cells)",[3],0.05 ng/mL
same,"IC50, neutralization of fully replicative BKV virions (MRC5 cells)",[4],0.03 ng/mL
same,Kd,[5],17.9 nM
